The chains are these.
B1: phage mono clone 3-E06 (VHH)
VHH: EVQLVESGGGLVQAGGSLTLSCVASASGSILRLNAMGWYRQAPAKQRELVALITRDGSTNYPDSVKGRFTISRDNAKNTVYLQMSSLSPEDTAVYYCYVQNHYSNYWGQGTQVTVSS
notes: the phage coat fusion part is not described
B2: phage mono clone 3-E09 (VHH)
VHH: AVQLVDSGGGLVQPGGSLRLSCAASGFTFSSYAMGWARQVPGKGLEWVSIIYRDGNTYYTDSVKGRFTISRDNAKNTVYLQMNSLKPEDTAVYYCAPVETVAARRRDYWGQGTQVNVSS
notes: as for B1
B3: phage mono clone 3-E10 (VHH)
VHH: B2 VHH
notes: as for B1
B4: phage mono clone 1-H8 (VHH)
VHH: QRQLVESGGGLVQPGGSLRLSCAVSEFTLDYYAIGWFRQAPGKEREGVSCISSSGGSTVYADSVKGRFTISADNAKNTVYLQMNSLKPEDTAVYYCAAGSLLLFRLCVSRLYEYDYWGQGTQVTVSS
notes: as for B1
B5: phage mono clone 3-G07 (VHH)
VHH: RLQLVESGGGLVQPGGSLRLSCAVSGKALDYYSIGWFRQAPRKQREGVSCISSSGGSTNYADSVKGRFTISRDNAKDTVYLQMNSLKPEDTADYYCAVVSTVLCGLGIYEYDYWGQGTLVTVSS
notes: as for B1
B6: phage mono clone 1-B4 (VHH)
VHH: QVQLVESGGGLVQPGGSLRLSCAASGFTLDYYAIGWFRQAPGKEREGVSCISSTGGSTNYADSVKGRFTISRDNAKNTVYLQMNSLKPEDTAVYYCAADTHYLTVCYDRLGFDYWGQGTQVTVSS
notes: as for B1
B7: phage mono clone 3-E04 (VHH)
VHH: QLRLVESGGGLVQPGGSLRLSCAASGFTLDYYDIGWFRQAPGKEREGVSCIGRISGDTDYAESVKGRFTASRDNAKNTVYLQMNSLKPEDTAVYYCAAERRFFGGGCRRSVDNMDSWGKGTLVTVSS
notes: as for B1
B8: phage mono clone 1-F9 (VHH)
VHH: QSLLVESGGGLVQPGGSLRLSCAASGFSLDYYAIGWFRQAPGKEREEVSCISSGGGSTNYADSVKGRFTISRDNAKNTVYLQMNSLKPEDTAVYYCAAKRNFMLYLVQCPYEYDYWGQGTQVTVSS
notes: the phage coat fusion part is not described; also called 1-F09
B9: phage mono clone 3-H02 (VHH)
VHH: QLTLVESGGGLVQPGGSLRLSCAASEFTLDYYAIGWFRQAPGKEREGVSCISSSDGSTYYADSVKGRFTISRDNAKNTVYLQMNSLKPEDTAVYYCAIGGLLLLRLWERGNYEFDYWGQGTQVTVSS
notes: as for B1
B10: phage mono clone 1-G2 (VHH)
VHH: QSQLAESGGGLVQPGGSLRLSCVASRFSLDAYAIAWFRQAPGKEREGVSCISSIGGRTNYADPVKGRFTISRDNAKNTAYLEMNSLQPEDTAVYYCAAVQRLFGPCLLSGGMDYWGKGTPVTVSS
notes: as for B1
B11: phage mono clone 1-F10 (VHH)
VHH: QVQLVESGGGLVQPGGSLRLSCAASGSILSIRAVGWYRQAPGKQRELVALITSDGTTHYALSVKGRFTISRDNAKTTVYLQMNSLKPEDTAVYYCNREDYARRYWGQGTQVTVSS
notes: as for B1
B12: phage mono clone 3-E03 (VHH)
VHH: AVQLVDSGGGLVQAGGSLRLSCAASGIRLSSNAMAWYRQAPGKQRGLVALITSDGTTNYVDSVKGRFTISRDNAKNTVYLQMNSLKPEDTAVYYCKREPYLSTRGYWGQGTQVTVSS
notes: as for B1
B13: phage mono clone 1-H2 (VHH)
VHH: QVQLVESGGGLVQPGGSLRLSCAASGSTLDYYAIAWFRQAPGKGREGVSCISSSGGRTNYADSVKGRFTVSRDNVKNTVYLQMNSLKPEDTAVYNCAAGGDLSCYGTPTSIWQYDLWGQGTQVTVAS
notes: as for B1
B14: phage mono clone 1-G1 (VHH)
VHH: QVQLVESGGGLVQPGGSLRLSCAASGNSLRRYAIGWFRQAPGKEREGVVCISTVGGSSYYVDSVKGRFTISEDNVKNTAYLQMNSLEPEDTAVYYCAAANRLYCPAYGSAGYDYWGQGTQVTVSS
notes: as for B1
B15: phage mono clone 1-F1 (VHH)
VHH: EVQLAESGGGLVQPGGSLRLSCAASGFTFSSYTMSWVRQAPGKGLEWVSAIDSDGGVTSYADSVKGRFTISRDNAKNTLYLQMNSLKPEDTAVYYCANGGYCSGYGCYPRLLSQGTLVTVSS
notes: as for B1
B16: pcDNA3.4-SDAB20-7-26-2-3-E04-hFC (Fc fusion)
chain: B7 VHH
notes: Llama VHH fused in tandem with human IgG1 Fc, expressed in 293 cells, purified on protein A; not shown: human IgG1 Fc from vector pcDNA3.4-hIgG1-Fc2
B17: pcDNA3.4-SDAB20-7-26-2-1-F9-hFC (Fc fusion)
chain: B8 VHH
notes: also called 1-F09; not shown: human IgG1 Fc from vector pcDNA3.4-hIgG1-Fc2
B18: pcDNA3.4-SDAB20-7-26-2-3-H02-hFC (Fc fusion)
chain: B9 VHH
notes: as for B16

The first assay deals with T1, UPAR-His recombinant protein (UniProt Q03405 23-303).
T1 construct: range 23-303; Expressed in 293 cells, purified on Ni-NTA; Biotinylated in the uPA ELISA; also called UPAR-His antigen; biotinUPAR-His; not shown: C-terminal His tag
T1 sequence (Q03405 23-303 limits assumed): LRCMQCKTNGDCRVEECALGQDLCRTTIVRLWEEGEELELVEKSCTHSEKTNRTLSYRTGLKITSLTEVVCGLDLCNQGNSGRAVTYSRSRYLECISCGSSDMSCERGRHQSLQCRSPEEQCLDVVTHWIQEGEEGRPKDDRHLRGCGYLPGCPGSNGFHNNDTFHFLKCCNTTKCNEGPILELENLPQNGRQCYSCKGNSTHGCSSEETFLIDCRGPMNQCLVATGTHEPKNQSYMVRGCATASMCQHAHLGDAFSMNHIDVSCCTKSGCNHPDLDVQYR
The assay is described as follows: phage ELISA, plate coated with UPAR-His, HRP-anti-M13. Background: An ELISA detects its analyte on a solid surface through an enzyme-linked reagent.
For the molecule B1, the S/N ratio was above 5.

For the molecule B2, the S/N ratio was above 5. For the molecule B3, the S/N ratio is above 5. Regarding B4, the S/N ratio is above 5. For the molecule B5, the S/N ratio is above 5.

In the case of B6, the S/N ratio was above 5. On to B7, for which the S/N ratio is above 5. Still for that read-out and setting: to B8 belongs above 5; to B9, above 5. The same measure, in the same setting: to B10 belongs above 5; to B11, above 5. Take B12: the S/N ratio is above 5. With B13, the S/N ratio is above 5.

B14: the S/N ratio is above 5. On the same count and under the same terms, then B15, with above 5.

In another assay the target is T1, UPAR-His recombinant protein. The assay is described as follows: SPR (BiaCore T200), UPAR recombinant protein immobilised on CM5 chip, antibody as mobile phase. For orientation: Surface plasmon resonance follows binding to a sensor surface in real time, without labels.
As for B16, the dissociation constant Kd – broadly, a measure of binding affinity in units of concentration – is 22.3 nM; the koff (in general, the rate constant with which the complex falls apart) was 0.00139 s⁻¹; the kon (as a rule, a measure of how fast the partners come together) turned out to be 62700 M⁻¹ s⁻¹. For B17 the same measures were 1.49 nM, 0.000101 s⁻¹ and 67600 M⁻¹ s⁻¹. For B18 the same measures were 1.31 nM, 0.000173 s⁻¹ and 132000 M⁻¹ s⁻¹.
